{
  "source": "paper PMC3938326",
  "biological_target": "T1, hPh1 FCS domain (Polyhomeotic homolog 1) (human, UniProt P78364 783-828)",
  "T1 chain": "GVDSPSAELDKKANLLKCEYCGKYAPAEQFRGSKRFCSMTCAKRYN",
  "test": "NMR HSQC titration",
  "data": [
    {"binder": "GGGCACGCGUAUUGCCCUAGUGGCCGGCGUGCCC (structured_RNA)", "note": "[34nt RNA]", "values": [
      {"measurement": "Kd", "result": "3 ± 1.1", "unit": "mM"}
    ]}
  ]
}
